Laboratory results: patent US20140213513A1 (Sanofi, priority 2012, published 2014)
*1 amine or outer side, *2 acyl side, *3 side chain or, on linkers, in order; H or OH if unused. Where no end group is shown, it is not given here. Side-chain parts run from the residue outwards. [ ]: non-standard residue; d: D form. The star is where a group is joined. γGlu = O=C(O)[C@H](CCC(=O)[*:2])N[*:1]; Palmitoyl = CCCCCCCCCCCCCCCC(=O)*; Aib = CC(C)(N)C(=O)O

B1: exendin-4 peptide analogue SEQ ID NO: 57 (peptide)
peptide: Y[Aib]EGTFTSDLSIQK([γGlu-Palmitoyl])EERAAHEFIEWLKR[Aib]GPSSGAPPPSK-NH2
modifications: N-terminus assumed
SMILES: CCCCCCCCCCCCCCCC(=O)N[C@@H](CCC(=O)NCCCC[C@H](NC(=O)[C@H](CCC(N)=O)NC(=O)[C@@H](NC(=O)[C@H](CO)NC(=O)[C@H](CC(C)C)NC(=O)[C@H](CC(=O)O)NC(=O)[C@H](CO)NC(=O)[C@@H](NC(=O)[C@H](Cc1ccccc1)NC(=O)[C@@H](NC(=O)CNC(=O)[C@H](CCC(=O)O)NC(=O)C(C)(C)NC(=O)[C@@H](N)Cc1ccc(O)cc1)[C@@H](C)O)[C@@H](C)O)[C@@H](C)CC)C(=O)N[C@@H](CCC(=O)O)C(=O)N[C@@H](CCC(=O)O)C(=O)N[C@@H](CCCNC(=N)N)C(=O)N[C@@H](C)C(=O)N[C@@H](C)C(=O)N[C@@H](Cc1c[nH]cn1)C(=O)N[C@@H](CCC(=O)O)C(=O)N[C@@H](Cc1ccccc1)C(=O)N[C@H](C(=O)N[C@@H](CCC(=O)O)C(=O)N[C@@H](Cc1c[nH]c2ccccc12)C(=O)N[C@@H](CC(C)C)C(=O)N[C@@H](CCCCN)C(=O)N[C@@H](CCCNC(=N)N)C(=O)NC(C)(C)C(=O)NCC(=O)N1CCC[C@H]1C(=O)N[C@@H](CO)C(=O)N[C@@H](CO)C(=O)NCC(=O)N[C@@H](C)C(=O)N1CCC[C@H]1C(=O)N1CCC[C@H]1C(=O)N1CCC[C@H]1C(=O)N[C@@H](CO)C(=O)N[C@@H](CCCCN)C(N)=O)[C@@H](C)CC)C(=O)O
B2: exendin-4 peptide analogue SEQ ID NO: 56 (peptide)
peptide: Y[Aib]QGTFTSDLSKQK([γGlu-Palmitoyl])DSRAARDFIEWLKAGGPSSGAPPPS-NH2
modifications: N-terminus assumed
SMILES: CCCCCCCCCCCCCCCC(=O)N[C@@H](CCC(=O)NCCCC[C@H](NC(=O)[C@H](CCC(N)=O)NC(=O)[C@H](CCCCN)NC(=O)[C@H](CO)NC(=O)[C@H](CC(C)C)NC(=O)[C@H](CC(=O)O)NC(=O)[C@H](CO)NC(=O)[C@@H](NC(=O)[C@H](Cc1ccccc1)NC(=O)[C@@H](NC(=O)CNC(=O)[C@H](CCC(N)=O)NC(=O)C(C)(C)NC(=O)[C@@H](N)Cc1ccc(O)cc1)[C@@H](C)O)[C@@H](C)O)C(=O)N[C@@H](CC(=O)O)C(=O)N[C@@H](CO)C(=O)N[C@@H](CCCNC(=N)N)C(=O)N[C@@H](C)C(=O)N[C@@H](C)C(=O)N[C@@H](CCCNC(=N)N)C(=O)N[C@@H](CC(=O)O)C(=O)N[C@@H](Cc1ccccc1)C(=O)N[C@H](C(=O)N[C@@H](CCC(=O)O)C(=O)N[C@@H](Cc1c[nH]c2ccccc12)C(=O)N[C@@H](CC(C)C)C(=O)N[C@@H](CCCCN)C(=O)N[C@@H](C)C(=O)NCC(=O)NCC(=O)N1CCC[C@H]1C(=O)N[C@@H](CO)C(=O)N[C@@H](CO)C(=O)NCC(=O)N[C@@H](C)C(=O)N1CCC[C@H]1C(=O)N1CCC[C@H]1C(=O)N1CCC[C@H]1C(=O)N[C@@H](CO)C(N)=O)[C@@H](C)CC)C(=O)O

Columns and labels:
Test in all cases: cell-based or functional assay
human GIP receptor = target: T1, human GIP receptor (human, UniProt P48546 22-466)
T1 sequence (looked up): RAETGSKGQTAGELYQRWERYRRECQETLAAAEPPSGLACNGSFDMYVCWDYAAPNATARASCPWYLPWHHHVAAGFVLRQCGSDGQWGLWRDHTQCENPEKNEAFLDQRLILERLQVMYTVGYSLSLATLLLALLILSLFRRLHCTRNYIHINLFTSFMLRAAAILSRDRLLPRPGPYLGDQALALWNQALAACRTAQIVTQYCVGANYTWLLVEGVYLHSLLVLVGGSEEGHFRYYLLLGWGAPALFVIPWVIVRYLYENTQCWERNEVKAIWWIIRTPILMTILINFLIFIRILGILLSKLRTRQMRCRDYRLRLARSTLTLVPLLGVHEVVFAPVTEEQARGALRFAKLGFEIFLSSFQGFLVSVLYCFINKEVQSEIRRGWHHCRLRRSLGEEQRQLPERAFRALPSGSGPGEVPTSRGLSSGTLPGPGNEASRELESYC

human glucagon receptor = human glucagon receptor (human, UniProt P47871 26-477)
human GLP-1 receptor = human GLP-1 receptor (human, UniProt P43220 24-463)

human glucagon receptor, sequence (P47871 26-477): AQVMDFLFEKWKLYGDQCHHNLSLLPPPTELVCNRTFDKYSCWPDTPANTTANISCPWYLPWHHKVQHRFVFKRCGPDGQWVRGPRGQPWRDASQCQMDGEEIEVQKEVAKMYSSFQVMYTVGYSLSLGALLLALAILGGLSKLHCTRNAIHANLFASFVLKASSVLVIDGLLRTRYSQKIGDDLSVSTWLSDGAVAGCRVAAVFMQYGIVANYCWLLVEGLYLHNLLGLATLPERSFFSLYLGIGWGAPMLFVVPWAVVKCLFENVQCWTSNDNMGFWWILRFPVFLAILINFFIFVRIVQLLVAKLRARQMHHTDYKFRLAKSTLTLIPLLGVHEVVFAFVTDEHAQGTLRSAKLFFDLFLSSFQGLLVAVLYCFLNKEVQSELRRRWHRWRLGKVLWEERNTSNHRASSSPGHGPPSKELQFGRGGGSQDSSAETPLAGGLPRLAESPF

| Binder | EC50 hGIP R (human GIP receptor) [nM] | EC50 hGLUC R (human glucagon receptor) [nM] | EC50 hGLP-1 R (human GLP-1 receptor) [nM] |
| --- | --- | --- | --- |
| B1 | 0.0157 | 14.4 | 0.0071 |
| B2 | 0.162 | 0.0199 | 0.0046 |
